Publication PMC4682845 (PLoS ONE, 2015)

Experiments:
[1] = target: […]-para-nitroanilide (TQ6-pNA) peptide substrate; assay: ITC + other: steady-state kinetics; settings: both partners purified
[2] = target: the molecule itself; assay: AUC

B1: SARS-CoV main protease (M^pro), wild type (enzyme)
chain: SGFRKMAFPSGKVEGCMVQVTCGTTTLNGLWLDDTVYCPRHVICTAEDMLNPNYEDLLIRKSNHSFLVQAGNVQLRVIGHSMQNCLLRLKVDTSNPKTPKYKFVRIQPGQTFSVLACYNGSPSGVYQCAMRPNHTIKGSFLNGSCGSVGFNIDYDCVSFCYMHHMELPTGVHAGTDLEGKFYGPFVDRQTAQAAGTDTTITLNVLAWLYAAVINGDRWFLNRFTTTLNDFNLVAMKYNYEPLTQDHVDILGPLSAQTGIAVLDMCAALKELLQNGMNGRTILGSTILEDEFTPFDVVRQCSGVTFQ
With B1 the koff [1] was 0.084 s⁻¹, the kon [1] was 2460 M⁻¹ s⁻¹ and the Kd [2] was 700 ± 20 nM.
